B1: Myc-USP5 [not stated] / Flag-IRF3 [not stated] (parent complex)
chain 1: MAELSEEALLSVLPTIRVPKAGDRVHKDECAFSFDTPESEGGLYICMNTFLGFGKQYVERHFNKTGQRVYLHLRRTRRPKEEDPATGTGDPPRKKPTRLAIGVEGGFDLSEEKFELDEDVKIVILPDYLEIARDGLGGLPDIVRDRVTSAVEALLSADSASRKQEVQAWDGEVRQVSKHAFSLKQLDNPARIPPCGWKCSKCDMRENLWLNLTDGSILCGRRYFDGSGGNNHAVEHYRETGYPLAVKLGTITPDGADVYSYDEDDMVLDPSLAEHLSHFGIDMLKMQKTDKTMTELEIDMNQRIGEWELIQESGVPLKPLFGPGYTGIRNLGNSCYLNSVVQVLFSIPDFQRKYVDKLEKIFQNAPTDPTQDFSTQVAKLGHGLLSGEYSKPVPESGDGERVPEQKEVQDGIAPRMFKALIGKGHPEFSTNRQQDAQEFFLHLINMVERNCRSSENPNEVFRFLVEEKIKCLATEKVKYTQRVDYIMQLPVPMDAALNKEELLEYEEKKRQAEEEKMALPELVRAQVPFSSCLEAYGAPEQVDDFWSTALQAKSVAVKTTRFASFPDYLVIQIKKFTFGLDWVPKKLDVSIEMPEELDISQLRGTGLQPGEEELPDIAPPLVTPDEPKGSLGFYGNEDEDSFCSPHFSSPTSPMLDESVIIQLVEMGFPMDACRKAVYYTGNSGAEAAMNWVMSHMDDPDFANPLILPGSSGPGSTSAAADPPPEDCVTTIVSMGFSRDQALKALRATNNSLERAVDWIFSHIDDLDAEAAMDISEGRSAADSISESVPVGPKVRDGPGKYQLFAFISHMGTSTMCGHYVCHIKKEGRWVIYNDQKVCASEKPPKDLGYIYFYQRVAS
chain 2: MGTPKPRILPWLVSQLDLGQLEGVAWVNKSRTRFRIPWKHGLRQDAQQEDFGIFQAWAEATGAYVPGRDKPDLPTWKRNFRSALNRKEGLRLAEDRSKDPHDPHKIYEFVNSGVGDFSQPDTSPDTNGGGSTSDTQEDILDELLGNMVLAPLPDPGPPSLAVAPEPCPQPLRSPSLDNPTPFPNLGPSENPLKRLLVPGEEWEFEVTAFYRGRQVFQQTISCPEGLRLVGSEVGDRTLPGWPVTLPDPGMSLTDRGVMSYVRHVLSCLGGGLALWRAGQWLWAQRLGHCHTYWAVSEELLPNSGHGPDGEVPKDKEGGVFDLGPFIVDLITFTEGSGRSPRYALWFCVGESWPQDQPWTKRLVMVKVVPTCLRALVEMARVGGASSLENTVDLHISNSHPLSLTSDQYKAYLQDLVEGMDFQGPGES

In this assay the parent is B1. Nature of the assay: in situ PLA; HEK293T cells co-transfected for 24 h, then infected with SeV (0.1 MOI) for 6 h; parent: 12; read off a plot.
For chain 1 C335A, the response is ~12 complex number/cell.

Source of the values: PMC11737852 (2025).
